Among the data in article PMC2360559, “Repeated cycles of Clostridium-directed enzyme prodrug therapy result in sustained antitumour effects in vivo” (British Journal of Cancer, 2006) are Km and kcat values, retold here.

The test system of the data set is NC(=O)c1cc(N2CC2)c([N+](=O)[O-])cc1[N+](=O)[O-]. Nature of the data set: purified protein. In kind it is biochemical, Haemophilus influenzae. The following applies: 100–1000 μM CB 1954, 500 μM NADPH, 37°C, 10 min, product 4HX.

As to “NTR-H; Haemophilus influenzae NfnB; YC78_HAEIN; HinNTR (Haemophilus influenzae Rd KW20)”, the Michaelis-Menten constant (Km) was determined as 690 µM and the kcat came out at 56.2 s⁻¹.
